In patent US20260274980A1 (BIOARCTIC, published 2026):

Tests used:
[1] = target: T1, human transferrin receptor 1 (hTfR1) on cell surfaces (human, UniProt P02786 1-760); experiment: flow cytometry, Ramos cells
T1 construct: Endogenous receptor on hCMEC/D3, THP-1, K562 and Ramos cells; also called CD71; endogenous hTfR1
Procedure: (§1) Binding to hTfR1 on cells was measured on the immortalized human B lymphocyte cell line Ramos (Sigma, cat: 85030802). This cell line is known for expressing high levels of hTfR1 on the cell surface. Fcγ receptors were blocked using Fc receptor blocker (Innovex biosciences, #NB309-4X-40) for 30 min at 4° C., after which the cells were washed in PBS. The cells were seeded in a 96 well V bottom plate (#249570, Thermo Scientific Nunc), and serially diluted Gen 2A constructs were added and the plate was incubated at 4° C. overnight. The cells were washed with PBS with 1% BSA and then fixed with freshly prepared 4% formaldehyde (Thermo Scientific Pierce, #28906) diluted in PBS for 15 min at room temperature. The cells were washed with PBS containing 1% BSA, and then stained. […] Staining was carried out for 30 min at 4° C. After incubation with the detection reagent, cells were washed with PBS containing 1% BSA. The cells were finally resuspended in 200 μl PBS with 1% BSA and acquired using a BD FACSLyric flow cytometer system (BD Biosciences). Samples were analyzed using flowJo software (BD Biosciences).

[2] = target: T1, human transferrin receptor 1 (hTfR1) on …; experiment: flow cytometry on Ramos cells (hTfR1 on the surface), Fc receptors blocked, overnight at 4 °C, detection with anti-human IgG-Alexa Fluor 488
Procedure: as §1

T1 sequence (P02786 whole entry): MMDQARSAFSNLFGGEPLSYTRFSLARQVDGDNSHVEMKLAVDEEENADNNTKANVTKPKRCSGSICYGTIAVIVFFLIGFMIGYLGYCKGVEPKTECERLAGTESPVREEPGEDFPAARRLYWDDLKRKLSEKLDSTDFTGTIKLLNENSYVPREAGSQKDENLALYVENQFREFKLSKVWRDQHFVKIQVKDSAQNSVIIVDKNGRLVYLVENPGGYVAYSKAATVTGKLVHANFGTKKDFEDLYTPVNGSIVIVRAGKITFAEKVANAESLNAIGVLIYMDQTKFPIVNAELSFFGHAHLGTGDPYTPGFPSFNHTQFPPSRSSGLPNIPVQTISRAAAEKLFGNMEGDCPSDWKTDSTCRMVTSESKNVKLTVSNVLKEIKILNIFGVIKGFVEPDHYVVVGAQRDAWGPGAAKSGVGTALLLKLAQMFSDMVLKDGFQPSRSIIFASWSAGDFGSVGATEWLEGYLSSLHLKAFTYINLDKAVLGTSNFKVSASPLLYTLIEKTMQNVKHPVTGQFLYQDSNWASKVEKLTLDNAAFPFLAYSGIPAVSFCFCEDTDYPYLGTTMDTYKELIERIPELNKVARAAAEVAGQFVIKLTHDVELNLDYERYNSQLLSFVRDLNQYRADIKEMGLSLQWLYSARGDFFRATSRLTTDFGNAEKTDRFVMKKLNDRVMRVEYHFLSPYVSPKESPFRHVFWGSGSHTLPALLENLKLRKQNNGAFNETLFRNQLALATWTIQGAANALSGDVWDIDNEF

B1: 2A-3 #6 (bispecific antibody, human IgG1, kappa)
heavy: not shown
chain: DIVMTQAPLSLPVSLGDQASISCRSSQSIVHSNGNTYLEWYLQKPGQSPKLLIYKVSNRFSGVPDRFSGSGSGTDFTLKISRVEAEDLGIYYCFQGSHVPPTFGGGTKLEIKRTVAAPSVFIFPPSDEQLKSGTASVVCLLNNFYPREAKVQWKVDNALQSGNSQESVTEQDSKDSTYSLSSTLTLSKADYEKHKVYACEVTHQGLSSPVTKSFNRGECGGGGSGGGGSGGGGSEVQLVQSGAEVKKPGSSVKVSCKASGYIFTDYNMDWVRQAPGQGLEWIGDINPDADTTSYNEKFKGRATLTVDKSTSTAYMELSSLRSEDTAVYYCARGGYSGSSYYHPMDYWGQGTLVTVSSGGGGSGGGGSGGGGSDIQMTQSPSSVSASVGDRVTITCKSSQSLLYSTNQKNYLAWYQQKPGKAPKLLIYWASTRESGVPSRFSGSGSGTDFTLTISSLQPEDFATYYCQQYFIYPRTFGQGTKVEIKGGGGSGGGGSGGGGSGGGGSGGGGSDIVMTQAPLSLPVSLGDQASISCRSSQSIVHSNGNTYLEWYLQKPGQSPKLLIYKVSNRFSGVPDRFSGSGSGTDFTLKISRVEAEDLGIYYCFQGSHVPPTFGGGTKLEIKRTVAAPSVFIFPPSDEQLKSGTASVVCLLNNFYPREAKVQWKVDNALQSGNSQESVTEQDSKDSTYSLSSTLTLSKADYEKHKVYACEVTHQGLSSPVTKSFNRGEC
notes: also called Gen 2A construct #6; VH first
B1: binds [1].

B2: 2A-3 #14 (bispecific antibody, human IgG1, kappa)
heavy: not shown
chain: DIVMTQAPLSLPVSLGDQASISCRSSQSIVHSNGNTYLEWYLQKPGQSPKLLIYKVSNRFSGVPDRFSGSGSGTDFTLKISRVEAEDLGIYYCFQGSHVPPTFGGGTKLEIKRTVAAPSVFIFPPSDEQLKSGTASVVCLLNNFYPREAKVQWKVDNALQSGNSQESVTEQDSKDSTYSLSSTLTLSKADYEKHKVYACEVTHQGLSSPVTKSFNRGECGGGGSGGGGSGGGGSGGGGSGGGGSDIQMTQSPSSVSASVGDRVTITCKSSQSLLYSTNQKNYLAWYQQKPGKAPKLLIYWASTRESGVPSRFSGSGSGTDFTLTISSLQPEDFATYYCQQYFIYPRTFGQGTKVEIKGGGGSGGGGSGGGGSEVQLVQSGAEVKKPGSSVKVSCKASGYIFTDYNMDWVRQAPGQGLEWIGDINPDADTTSYNEKFKGRATLTVDKSTSTAYMELSSLRSEDTAVYYCARGGYSGSSYYHPMDYWGQGTLVTVSSGGGGSGGGGSGGGGSGGGGSGGGGSDIVMTQAPLSLPVSLGDQASISCRSSQSIVHSNGNTYLEWYLQKPGQSPKLLIYKVSNRFSGVPDRFSGSGSGTDFTLKISRVEAEDLGIYYCFQGSHVPPTFGGGTKLEIKRTVAAPSVFIFPPSDEQLKSGTASVVCLLNNFYPREAKVQWKVDNALQSGNSQESVTEQDSKDSTYSLSSTLTLSKADYEKHKVYACEVTHQGLSSPVTKSFNRGEC
notes: also called Gen 2A construct #14; VL first
B2: binds [2].

B3: 2A-3 #3 (bispecific antibody, human IgG1, kappa)
heavy: not shown
chain: DIVMTQAPLSLPVSLGDQASISCRSSQSIVHSNGNTYLEWYLQKPGQSPKLLIYKVSNRFSGVPDRFSGSGSGTDFTLKISRVEAEDLGIYYCFQGSHVPPTFGGGTKLEIKRTVAAPSVFIFPPSDEQLKSGTASVVCLLNNFYPREAKVQWKVDNALQSGNSQESVTEQDSKDSTYSLSSTLTLSKADYEKHKVYACEVTHQGLSSPVTKSFNRGECGGGGSGGGGSGGGGSEVQLVQSGAEVKKPGSSVKVSCKASGYIFTDYNMDWVRQAPGQGLEWIGDINPDADTTSYNEKFKGRATLTVDKSTSTAYMELSSLRSEDTAVYYCARGGYSGSSYYHPMDYWGQGTLVTVSSGGGGSGGGGSGGGGSDIQMTQSPSSVSASVGDRVTITCKSSQSLLYSTNQKNYLAWYQQKPGKAPKLLIYWASTRESGVPSRFSGSGSGTDFTLTISSLQPEDFATYYCQQYFIYPRTFGQGTKVEIKGGGGSGGGGSGGGGSGGGGSDIVMTQAPLSLPVSLGDQASISCRSSQSIVHSNGNTYLEWYLQKPGQSPKLLIYKVSNRFSGVPDRFSGSGSGTDFTLKISRVEAEDLGIYYCFQGSHVPPTFGGGTKLEIKRTVAAPSVFIFPPSDEQLKSGTASVVCLLNNFYPREAKVQWKVDNALQSGNSQESVTEQDSKDSTYSLSSTLTLSKADYEKHKVYACEVTHQGLSSPVTKSFNRGEC
notes: also called Gen 2A construct #3; VH first
B3: binds [1].

B4: 2A-3 #5 (bispecific antibody, human IgG1, kappa)
heavy: not shown
chain: DIVMTQAPLSLPVSLGDQASISCRSSQSIVHSNGNTYLEWYLQKPGQSPKLLIYKVSNRFSGVPDRFSGSGSGTDFTLKISRVEAEDLGIYYCFQGSHVPPTFGGGTKLEIKRTVAAPSVFIFPPSDEQLKSGTASVVCLLNNFYPREAKVQWKVDNALQSGNSQESVTEQDSKDSTYSLSSTLTLSKADYEKHKVYACEVTHQGLSSPVTKSFNRGECGGGGSGGGGSEVQLVQSGAEVKKPGSSVKVSCKASGYIFTDYNMDWVRQAPGQGLEWIGDINPDADTTSYNEKFKGRATLTVDKSTSTAYMELSSLRSEDTAVYYCARGGYSGSSYYHPMDYWGQGTLVTVSSGGGGSGGGGSGGGGSDIQMTQSPSSVSASVGDRVTITCKSSQSLLYSTNQKNYLAWYQQKPGKAPKLLIYWASTRESGVPSRFSGSGSGTDFTLTISSLQPEDFATYYCQQYFIYPRTFGQGTKVEIKGGGGSGGGGSGGGGSGGGGSGGGGSDIVMTQAPLSLPVSLGDQASISCRSSQSIVHSNGNTYLEWYLQKPGQSPKLLIYKVSNRFSGVPDRFSGSGSGTDFTLKISRVEAEDLGIYYCFQGSHVPPTFGGGTKLEIKRTVAAPSVFIFPPSDEQLKSGTASVVCLLNNFYPREAKVQWKVDNALQSGNSQESVTEQDSKDSTYSLSSTLTLSKADYEKHKVYACEVTHQGLSSPVTKSFNRGEC
notes: also called Gen 2A construct #5; VH first
B4: binds [1].

B5: 2A-3 #12 (bispecific antibody, human IgG1, kappa)
heavy: not shown
chain: DIVMTQAPLSLPVSLGDQASISCRSSQSIVHSNGNTYLEWYLQKPGQSPKLLIYKVSNRFSGVPDRFSGSGSGTDFTLKISRVEAEDLGIYYCFQGSHVPPTFGGGTKLEIKRTVAAPSVFIFPPSDEQLKSGTASVVCLLNNFYPREAKVQWKVDNALQSGNSQESVTEQDSKDSTYSLSSTLTLSKADYEKHKVYACEVTHQGLSSPVTKSFNRGECGGGGSGGGGSDIQMTQSPSSVSASVGDRVTITCKSSQSLLYSTNQKNYLAWYQQKPGKAPKLLIYWASTRESGVPSRFSGSGSGTDFTLTISSLQPEDFATYYCQQYFIYPRTFGQGTKVEIKGGGGSGGGGSGGGGSEVQLVQSGAEVKKPGSSVKVSCKASGYIFTDYNMDWVRQAPGQGLEWIGDINPDADTTSYNEKFKGRATLTVDKSTSTAYMELSSLRSEDTAVYYCARGGYSGSSYYHPMDYWGQGTLVTVSSGGGGSGGGGSGGGGSGGGGSGGGGSDIVMTQAPLSLPVSLGDQASISCRSSQSIVHSNGNTYLEWYLQKPGQSPKLLIYKVSNRFSGVPDRFSGSGSGTDFTLKISRVEAEDLGIYYCFQGSHVPPTFGGGTKLEIKRTVAAPSVFIFPPSDEQLKSGTASVVCLLNNFYPREAKVQWKVDNALQSGNSQESVTEQDSKDSTYSLSSTLTLSKADYEKHKVYACEVTHQGLSSPVTKSFNRGEC
notes: also called Gen 2A construct #12; VL first
B5: binds [2].

B6: 2A-3 #13 (bispecific antibody, human IgG1, kappa)
heavy: not shown
chain: DIVMTQAPLSLPVSLGDQASISCRSSQSIVHSNGNTYLEWYLQKPGQSPKLLIYKVSNRFSGVPDRFSGSGSGTDFTLKISRVEAEDLGIYYCFQGSHVPPTFGGGTKLEIKRTVAAPSVFIFPPSDEQLKSGTASVVCLLNNFYPREAKVQWKVDNALQSGNSQESVTEQDSKDSTYSLSSTLTLSKADYEKHKVYACEVTHQGLSSPVTKSFNRGECGGGGSGGGGSGGGGSDIQMTQSPSSVSASVGDRVTITCKSSQSLLYSTNQKNYLAWYQQKPGKAPKLLIYWASTRESGVPSRFSGSGSGTDFTLTISSLQPEDFATYYCQQYFIYPRTFGQGTKVEIKGGGGSGGGGSGGGGSEVQLVQSGAEVKKPGSSVKVSCKASGYIFTDYNMDWVRQAPGQGLEWIGDINPDADTTSYNEKFKGRATLTVDKSTSTAYMELSSLRSEDTAVYYCARGGYSGSSYYHPMDYWGQGTLVTVSSGGGGSGGGGSGGGGSGGGGSGGGGSDIVMTQAPLSLPVSLGDQASISCRSSQSIVHSNGNTYLEWYLQKPGQSPKLLIYKVSNRFSGVPDRFSGSGSGTDFTLKISRVEAEDLGIYYCFQGSHVPPTFGGGTKLEIKRTVAAPSVFIFPPSDEQLKSGTASVVCLLNNFYPREAKVQWKVDNALQSGNSQESVTEQDSKDSTYSLSSTLTLSKADYEKHKVYACEVTHQGLSSPVTKSFNRGEC
notes: also called Gen 2A construct #13; VL first
B6: binds [2].
